According to patent publication US20110263454A1, “Methods of Identifying Functional Characteristics of Promoters, Transcription Modifying Proteins and Transcription Modulating Agents” (Salk Institute for Biological Studies, priority 2008, published 2011):

Columns and labels:
[1] = tested on: hCAR promoter; experiment: NHR-promoter luciferase screen, hCAR promoter; format: cell-based, human; conditions: for luciferase activity normalized to lacZ activity and to a control, hCAR: hCAR promoter-luciferase, CV-1 cells, NHR +/- ligand, control = 1.00; for Luc. act., normalized to lacZ / Normalized Luc. act., normalized to control: hCAR promoter, HR/ligand component
Procedure: (§1) The use, feasibility, and reproducibility of the functional NHR-promoter screen in a 48-well format have been tested validated. Briefly, there were co-expressed 50 ng of each NHR/NHR homodimer or NHR/RXR heterodimer with 100 ng promoter/luciferase construct and 50 ng of LacZ (as a control for transfection efficiency) in CV-1 cells using Fugene HD (Roche) as a transfection reagent (alternatively or additionally, a CMV-YFP construct can be used as a transfection control). Each of the nuclear hormone receptors that were used in these experiments was cloned into a pcDNA3.1 vector and comprised a C-terminally linked V5H6 tag. Twenty-four hours after transfection, appropriate ligands were added, where applicable, (see Table 5 for various ligands and concentrations and after 48 hrs, samples were assayed for luciferase and LacZ activity. To measure for luciferase activity 15 ul of sample was added to 30 ul of luciferase buffer (20 mM tricine, 1.07 mM MgCarbonate, 2.67 mM MgSulfate, 0.1 mM Naz-EDTA, 5 mM DTT, 5 mM ATP, 0.15 mg/ml CoA, 0.5 mM Luciferin), mixed briefly, and run in a Perkin Elmer Victor 5 luminometer. Thus, the functional NHR-promoter screen was used to observe the transcriptional activity of 29 promoters from various physiological pathways including inflammation, lipid and sugar metabolism, cholesterol transport, xenobiotic metabolism, and circadian rhythm.
(§2) The promoters that facilitate transcription of the indicated gene products that were tested using the protocols described herein are listed in the first row of the table. The nuclear hormone receptors and, where applicable, ligands that were assayed for their transcriptional effects on the promoters are listed in the first column of the table. The data represent the luciferase activity of each sample normalized to both the lacZ activity of that sample and to a control, e.g., no NHR or ligand, as customary in the art. As described previously, these normalizations allow the transcriptional activity of each reporter cell to be compared to other samples.
(§3) Tables 7-40 show the transcriptional effects of the hormone receptors, and, where applicable, ligands (orphan receptors are screened without ligand), on each individual promoter. […] The control data of each table are shown in their last rows.

[2] = tested on: hPOMC promoter; experiment: NHR-promoter luciferase screen, hPOMC promoter; format: cell-based, human; conditions: for Luc. act., normalized to lacZ / Normalized Luc. act., normalized to control: hPOMC promoter, HR/ligand component; for hPOMC promoter reporter activity: transcription factor +/- ligand, control = 1.00
Procedure: as §1, §2, §3

[3] = tested on: mDio1 promoter; experiment: NHR-promoter luciferase screen, mDio1 promoter; format: cell-based, mouse; conditions: for Luc. act., normalized to lacZ / Normalized Luc. act., normalized to control: Dio1, HR component without or with its ligand; for mDio1 promoter reporter activity: transcription factor +/- ligand, control = 1.00
Procedure: as §1, §2, §3

[4] = tested on: mPOMC promoter; experiment: NHR-promoter luciferase screen, mPOMC promoter; format: cell-based, mouse; conditions: for Results of assays of transcription factor (+/- ligand) with mPOMC: Table 6d, luciferase activity relative to control (control = 1.00); for Luc. act., normalized to lacZ / Normalized Luc. act., normalized to control: mPOMC promoter, HR component with or without ligand; for Normalized Luc. act., normalized to control: relative to control
Procedure: as §1, §2, §3

[5] = tested on: mABCA1 promoter; experiment: NHR-promoter luciferase screen, mABCA1 promoter; format: cell-based, mouse; conditions: for Luc. act., normalized to lacZ / Normalized Luc. act., normalized to control: ABCA1 promoter, hormone receptor with or without its ligand; for Normalized Luc. act., normalized to control: relative to control; for mABCA1 promoter reporter activity: transcription factor +/- ligand, control = 1.00
Procedure: as §1, §2, §3

[6] = tested on: mCAR promoter; experiment: NHR-promoter luciferase screen, mCAR promoter; format: cell-based, mouse; conditions: for luciferase activity normalized to lacZ activity and to a control, mCAR: mCAR promoter-luciferase, CV-1 cells, NHR +/- ligand, control = 1.00; for Luc. act., normalized to lacZ / Normalized Luc. act., normalized to control: mCAR promoter, HR/ligand component
Procedure: as §1, §2, §3

Molecule | luciferase activity normalized to lacZ activity and to a control, hCAR [1] | Luc. act., normalized to lacZ [1] | Normalized Luc. act., normalized to control [1] | Luc. act., normalized to lacZ [2] | Normalized Luc. act., normalized to control [2] | hPOMC promoter reporter activity [2] | Luc. act., normalized to lacZ [3] | Normalized Luc. act., normalized to control [3] | mDio1 promoter reporter activity [3] | Results of assays of transcription factor (+/- ligand) with mPOMC [4] | Luc. act., normalized to lacZ [4] | Normalized Luc. act., normalized to control [4] | Luc. act., normalized to lacZ [5] | Normalized Luc. act., normalized to control [5] | mABCA1 promoter reporter activity [5] | luciferase activity normalized to lacZ activity and to a control, mCAR [6] | Luc. act., normalized to lacZ [6] | Normalized Luc. act., normalized to control [6]
RVRa: Rev-Erb α (NR1D1), cDNA driver (protein, UniProt P20393 1-614, looked up) Nuclear receptor subfamily 1 …: MTTLDSNNNTGGVITYIGSSGSSPSRTSPESLYSDNSNGSFQSLTQGCPTYFPPSPTGSLTQDPARSFGSIPPSLSDDGSPSSSSSSSSSSSSFYNGSPPGSLQVAMEDSSRVSPSKSTSNITKLNGMVLLCKVCGDVASGFHYGVHACEGCKGFFRRSIQQNIQYKRCLKNENCSIVRINRNRCQQCRFKKCLSVGMSRDAVRFGRIPKREKQRMLAEMQSAMNLANNQLSSQCPLETSPTQHPTPGPMGPSPPPAPVPSPLVGFSQFPQQLTPPRSPSPEPTVEDVISQVARAHREIFTYAHDKLGSSPGNFNANHASGSPPATTPHRWENQGCPPAPNDNNTLAAQRHNEALNGLRQAPSSYPPTWPPGPAHHSCHQSNSNGHRLCPTHVYAAPEGKAPANSPRQGNSKNVLLACPMNMYPHGRSGRTVQEIWEDFSMSFTPAVREVVEFAKHIPGFRDLSQHDQVTLLKAGTFEVLMVRFASLFNVKDQTVMFLSRTTYSLQELGAMGMGDLLSAMFDFSEKLNSLALTEEELGLFTAVVLVSADRSGMENSASVEQLQETLLRALRALVLKNRPLETSRFTKLLLKLPDLRTLNNMHSEKLLSFRVDAQ | 1.05 | 33.3 | 1.1 | 2.3 | 0.5 | 0.53 | 5.7 | 1.3 | 1.27 | 1.13 | 77.9 | 1.1 | 46.3 | 8.3 | 8.25 | 0.89 | 34.0 | 0.9
RORg: RAR-related Orphan Receptor γ (NR1F3), cDNA driver (protein, UniProt P51449 1-518, looked up) Nuclear receptor ROR-gamma: MDRAPQRQHRASRELLAAKKTHTSQIEVIPCKICGDKSSGIHYGVITCEGCKGFFRRSQRCNAAYSCTRQQNCPIDRTSRNRCQHCRLQKCLALGMSRDAVKFGRMSKKQRDSLHAEVQKQLQQRQQQQQEPVVKTPPAGAQGADTLTYTLGLPDGQLPLGSSPDLPEASACPPGLLKASGSGPSYSNNLAKAGLNGASCHLEYSPERGKAEGRESFYSTGSQLTPDRCGLRFEEHRHPGLGELGQGPDSYGSPSFRSTPEAPYASLTEIEHLVQSVCKSYRETCQLRLEDLLRQRSNIFSREEVTGYQRKSMWEMWERCAHHLTEAIQYVVEFAKRLSGFMELCQNDQIVLLKAGAMEVVLVRMCRAYNADNRTVFFEGKYGGMELFRALGCSELISSIFDFSHSLSALHFSEDEIALYTALVLINAHRPGLQEKRKVEQLQYNLELAFHHHLCKTHRQSILAKLPPKGKLRSLCSQHVERLQIFQHLHPIVVQAAFPPLYKELFSTETESPVGLSK | 1.22 | 38.6 | 1.2 | 2.1 | 0.5 | 0.50 | 5.7 | 1.3 | 1.29 | 1.30 | 89.5 | 1.3 | 29.4 | 5.2 | 5.23 | 1.13 | 43.1 | 1.1
RORa: RAR-related Orphan Receptor α (NR1F1), cDNA driver (protein, UniProt P35398 1-523, looked up) Nuclear receptor ROR-alpha: MESAPAAPDPAASEPGSSGADAAAGSRETPLNQESARKSEPPAPVRRQSYSSTSRGISVTKKTHTSQIEIIPCKICGDKSSGIHYGVITCEGCKGFFRRSQQSNATYSCPRQKNCLIDRTSRNRCQHCRLQKCLAVGMSRDAVKFGRMSKKQRDSLYAEVQKHRMQQQQRDHQQQPGEAEPLTPTYNISANGLTELHDDLSNYIDGHTPEGSKADSAVSSFYLDIQPSPDQSGLDINGIKPEPICDYTPASGFFPYCSFTNGETSPTVSMAELEHLAQNISKSHLETCQYLREELQQITWQTFLQEEIENYQNKQREVMWQLCAIKITEAIQYVVEFAKRIDGFMELCQNDQIVLLKAGSLEVVFIRMCRAFDSQNNTVYFDGKYASPDVFKSLGCEDFISFVFEFGKSLCSMHLTEDEIALFSAFVLMSADRSWLQEKVKIEKLQQKIQLALQHVLQKNHREDGILTKLICKVSTLRALCGRHTEKLMAFKAIYPDIVRLHFPPLYKELFTSEFEPAMQIDG | 0.58 | 18.2 | 0.6 | 1.6 | 0.4 | 0.38 | 2.1 | 0.5 | 0.47 | 2.08 | 143.4 | 2.1 | 33.0 | 5.9 | 5.87 | 0.55 | 20.9 | 0.5
LXRb: Liver X Receptor β (NR1H2), cDNA driver (protein, UniProt P55055 1-460, looked up) Oxysterols receptor LXR-beta: MSSPTTSSLDTPLPGNGPPQPGAPSSSPTVKEEGPEPWPGGPDPDVPGTDEASSACSTDWVIPDPEEEPERKRKKGPAPKMLGHELCRVCGDKASGFHYNVLSCEGCKGFFRRSVVRGGARRYACRGGGTCQMDAFMRRKCQQCRLRKCKEAGMREQCVLSEEQIRKKKIRKQQQESQSQSQSPVGPQGSSSSASGPGASPGGSEAGSQGSGEGEGVQLTAAQELMIQQLVAAQLQCNKRSFSDQPKVTPWPLGADPQSRDARQQRFAHFTELAIISVQEIVDFAKQVPGFLQLGREDQIALLKASTIEIMLLETARRYNHETECITFLKDFTYSKDDFHRAGLQVEFINPIFEFSRAMRRLGLDDAEYALLIAINIFSADRPNVQEPGRVEALQQPYVEALLSYTRIKRPQDQLRFPRMLMKLVSLRTLSSVHSEQVFALRLQDKKLPPLLSEIWDVHE | 1.44 | 45.5 | 1.4 | 6.3 | 1.5 | 1.46 | 9.8 | 2.2 | 2.19 | 0.88 | 60.8 | 0.9 | 46.3 | 8.3 | 8.25 | 0.92 | 34.9 | 0.9
